In PMC7617797, “The phosphorylated trimeric SOSS1 complex and RNA polymerase II trigger liquid-liquid phase separation at double-strand breaks”:

B1: 21-mer ssDNA (pRMS630) (ssDNA)
DNA: GTGCCTTGCTAGGACATCTTT
B2: 61-mer ssDNA (ssDNA)
DNA: GACGCTGCCGAATTCTACCAGTGCCTTGCTAGGACATCTTTGCCCACCTGCAGGTTCACCC
B3: R-loop (mixed)
DNA 1: B2 DNA
DNA 2: GGGTGAACCTGCAGGTGGGCGGCTGCTCATCGTAGGTTAGTTGGTAGAATTCGGCAGCGTC
RNA: AAAGAUGUCCUAGCAAGGCAC
B4: bubble DNA (dsDNA)
DNA 1: B2 DNA
DNA 2: B3 DNA 2

Columns and labels:
Assay in all cases: EMSA; EMSA: 25 mM Tris-HCl pH 7.5, 1 mM DTT, 5 mM MgCl2, 100 mM NaCl, 20 min at 37 C; 10 nM substrate; protein 22-167 nM (RPA 5-40 nM); 7.5% native PAGE, 0.5x TBE, 4
hSSB1 = hSSB1 (Homo sapiens, UniProt Q9BQ15 1-211); details: protein: recombinant, tags: His6 (2BT)
hSSB1, sequence (Q9BQ15 whole entry): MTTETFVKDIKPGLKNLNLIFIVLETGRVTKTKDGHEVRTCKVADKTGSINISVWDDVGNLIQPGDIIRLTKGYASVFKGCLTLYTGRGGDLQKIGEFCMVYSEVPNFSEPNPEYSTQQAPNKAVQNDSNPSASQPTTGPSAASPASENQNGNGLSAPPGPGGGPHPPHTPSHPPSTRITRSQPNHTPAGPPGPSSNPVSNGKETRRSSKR

RPA = RPA (UniProt P27694;P15927;P35244 1-616;1-270;1-121); details: protein: recombinant; copies: 1;1;1; label: 5' Cy3; single strand
RPA, sequence (P27694 whole entry, chain 1 of 3): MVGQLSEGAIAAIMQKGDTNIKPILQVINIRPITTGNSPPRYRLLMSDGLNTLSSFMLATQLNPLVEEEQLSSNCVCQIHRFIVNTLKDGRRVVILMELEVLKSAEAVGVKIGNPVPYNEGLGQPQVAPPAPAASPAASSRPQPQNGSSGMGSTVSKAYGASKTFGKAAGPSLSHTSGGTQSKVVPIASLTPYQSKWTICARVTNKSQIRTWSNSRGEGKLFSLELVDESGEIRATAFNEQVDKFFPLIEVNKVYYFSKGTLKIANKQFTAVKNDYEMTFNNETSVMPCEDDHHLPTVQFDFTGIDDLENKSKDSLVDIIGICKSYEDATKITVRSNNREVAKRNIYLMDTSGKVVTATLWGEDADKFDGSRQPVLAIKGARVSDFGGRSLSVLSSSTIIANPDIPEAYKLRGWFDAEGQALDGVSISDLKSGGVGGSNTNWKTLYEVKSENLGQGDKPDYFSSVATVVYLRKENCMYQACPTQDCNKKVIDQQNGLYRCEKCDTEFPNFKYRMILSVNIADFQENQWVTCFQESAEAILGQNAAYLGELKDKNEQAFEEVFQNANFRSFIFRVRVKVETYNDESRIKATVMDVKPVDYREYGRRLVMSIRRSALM
RPA, sequence (P15927 whole entry, chain 2 of 3): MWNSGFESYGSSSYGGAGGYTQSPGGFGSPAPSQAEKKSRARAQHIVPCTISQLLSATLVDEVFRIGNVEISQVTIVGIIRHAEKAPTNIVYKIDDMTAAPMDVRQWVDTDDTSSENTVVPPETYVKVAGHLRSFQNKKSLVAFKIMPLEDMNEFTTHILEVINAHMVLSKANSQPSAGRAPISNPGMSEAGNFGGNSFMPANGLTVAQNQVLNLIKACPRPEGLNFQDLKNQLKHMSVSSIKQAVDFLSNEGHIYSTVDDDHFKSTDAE
RPA, sequence (P35244 whole entry, chain 3 of 3): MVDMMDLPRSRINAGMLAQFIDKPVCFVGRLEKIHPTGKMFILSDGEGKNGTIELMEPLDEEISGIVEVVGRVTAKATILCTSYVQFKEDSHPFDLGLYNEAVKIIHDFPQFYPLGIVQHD

INTS3 = INTS3 (UniProt Q68E01 1-1043); details: protein: recombinant; tags: His6-TEV (438B); label: 5' Cy3; single strand
INTS3, sequence (Q68E01 whole entry): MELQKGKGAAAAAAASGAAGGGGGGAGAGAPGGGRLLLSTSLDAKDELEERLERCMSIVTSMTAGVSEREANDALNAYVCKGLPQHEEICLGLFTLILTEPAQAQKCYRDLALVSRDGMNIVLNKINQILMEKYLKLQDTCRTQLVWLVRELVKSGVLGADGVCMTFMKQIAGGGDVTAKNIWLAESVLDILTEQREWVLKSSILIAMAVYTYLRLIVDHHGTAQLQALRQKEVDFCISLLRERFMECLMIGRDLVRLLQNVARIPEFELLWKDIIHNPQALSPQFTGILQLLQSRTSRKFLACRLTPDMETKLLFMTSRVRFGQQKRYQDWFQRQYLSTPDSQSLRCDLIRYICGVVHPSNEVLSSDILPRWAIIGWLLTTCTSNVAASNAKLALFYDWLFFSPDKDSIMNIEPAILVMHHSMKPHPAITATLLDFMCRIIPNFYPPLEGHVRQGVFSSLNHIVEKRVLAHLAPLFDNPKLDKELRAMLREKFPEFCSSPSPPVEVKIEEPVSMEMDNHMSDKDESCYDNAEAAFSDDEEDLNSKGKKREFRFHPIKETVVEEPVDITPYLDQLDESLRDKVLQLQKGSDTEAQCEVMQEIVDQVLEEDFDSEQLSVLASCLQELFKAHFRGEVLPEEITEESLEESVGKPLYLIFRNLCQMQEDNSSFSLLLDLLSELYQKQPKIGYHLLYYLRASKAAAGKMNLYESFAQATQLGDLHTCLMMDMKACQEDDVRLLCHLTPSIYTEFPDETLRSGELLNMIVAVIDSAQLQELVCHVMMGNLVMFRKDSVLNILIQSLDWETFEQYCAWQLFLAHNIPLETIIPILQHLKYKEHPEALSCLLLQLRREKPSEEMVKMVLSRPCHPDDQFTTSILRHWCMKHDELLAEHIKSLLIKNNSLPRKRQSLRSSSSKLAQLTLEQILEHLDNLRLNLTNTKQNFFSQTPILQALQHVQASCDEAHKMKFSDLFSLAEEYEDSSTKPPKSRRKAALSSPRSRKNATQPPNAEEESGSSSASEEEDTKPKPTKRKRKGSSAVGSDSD

Row | Binder | binding result (hSSB1; label: 5' Cy3, single strand) | binding result (RPA) | binding result (INTS3) | binding result (hSSB1; label: 5' Cy3 on strand 1, 21-nt RNA paired to strand 1 in a 21-nt bubble, 20-bp flanking duplexes) | binding result (hSSB1; label: 5' Cy3 on strand 1, blunt, 21-nt central bubble)
1 | B1 | no binding | binds | – | – | –
2 | B2 | binds | binds | no binding | – | –
3 | B3 | – | – | – | binds | –
4 | B4 | – | – | – | – | no binding
